Literature values as cited in paper PMC4664823.

Experiments:
[1] = target: Glu14 (UniProt position 14, GAILAEVIGTT); details: competition between substrate and protons; various preparations in earlier work
[2] = target: Asp14 (UniProt position 14, GAILADVIGTT); details: competition between substrate and protons; various preparations in earlier work

Substance | pKa [1] | pKa [2]
EmrE (small multidrug resistance transporter), wild type (Escherichia coli) | 6.8 to 8.5 and ≈7.3 | 
E14D-EmrE (Escherichia coli; E14D) |  | ≈5.0–6.7 and ≈5.4
